The values that follow are results of earlier work, collected in paper PMC10552185.

The target in the data set is RegA (Dictyostelium discoideum) (UniProt Q23917).
Chain of RegA (Dictyostelium discoideum) (Q23917 whole entry): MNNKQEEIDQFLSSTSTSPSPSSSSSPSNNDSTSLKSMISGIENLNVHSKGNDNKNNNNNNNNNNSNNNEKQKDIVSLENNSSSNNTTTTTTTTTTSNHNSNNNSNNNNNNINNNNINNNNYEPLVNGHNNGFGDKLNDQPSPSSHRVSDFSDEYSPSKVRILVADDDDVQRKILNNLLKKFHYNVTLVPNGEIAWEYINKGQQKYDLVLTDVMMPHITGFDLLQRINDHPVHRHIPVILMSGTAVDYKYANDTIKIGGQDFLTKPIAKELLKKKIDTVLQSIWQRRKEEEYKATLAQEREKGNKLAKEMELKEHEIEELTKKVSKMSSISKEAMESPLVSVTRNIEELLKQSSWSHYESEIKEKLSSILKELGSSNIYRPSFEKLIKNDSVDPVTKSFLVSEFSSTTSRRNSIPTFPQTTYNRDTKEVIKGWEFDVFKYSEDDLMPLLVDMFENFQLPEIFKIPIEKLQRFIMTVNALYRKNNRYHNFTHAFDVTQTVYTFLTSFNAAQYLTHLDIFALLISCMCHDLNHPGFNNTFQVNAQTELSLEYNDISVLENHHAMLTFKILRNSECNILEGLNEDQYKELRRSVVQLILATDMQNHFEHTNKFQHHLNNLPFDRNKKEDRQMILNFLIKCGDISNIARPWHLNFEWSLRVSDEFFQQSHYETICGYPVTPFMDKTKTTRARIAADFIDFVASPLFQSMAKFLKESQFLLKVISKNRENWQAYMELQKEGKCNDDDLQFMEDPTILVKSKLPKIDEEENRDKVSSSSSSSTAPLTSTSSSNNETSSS

Turning to PKA RIα (from UniProt P10644), the Kd (commonly a measure of binding affinity in units of concentration) is 100 nM.
